B1: Abl interactor 2 (Homo sapiens), Q9NYB9 (parent)
chain: MAELQMLLEEEIPGGRRALFDSYTNLERVADYCENNYIQSADKQRALEETKAYTTQSLASVAYLINTLANNVLQMLDIQASQLRRMESSINHISQTVDIHKEKVARREIGILTTNKNTSRTHKIIAPANLERPVRYIRKPIDYTILDDIGHGVKWLLRFKVSTQNMKMGGLPRTTPPTQKPPSPPMSGKGTLGRHSPYRTLEPVRPPVVPNDYVPSPTRNMAPSQQSPVRTASVNQRNRTYSSSGSSGGSHPSSRSSSRENSGSGSVGVPIAVPTPSPPSVFPAPAGSAGTPPLPATSASAPAPLVPATVPSSTAPNAAAGGAPNLADGFTSPTPPVVSSTPPTGHPVQFYSMNRPASRHTPPTIGGSLPYRRPPSITSQTSLQNQMNGGPFYSQNPVSDTPPPPPPVEEPVFDESPPPPPPPEDYEEEEAAVVEYSDPYAEEDPPWAPRSYLEKVVAIYDYTKDKEDELSFQEGAIIYVIKKNDDGWYEGVMNGVTGLFPGNYVESIMHYSE
partner: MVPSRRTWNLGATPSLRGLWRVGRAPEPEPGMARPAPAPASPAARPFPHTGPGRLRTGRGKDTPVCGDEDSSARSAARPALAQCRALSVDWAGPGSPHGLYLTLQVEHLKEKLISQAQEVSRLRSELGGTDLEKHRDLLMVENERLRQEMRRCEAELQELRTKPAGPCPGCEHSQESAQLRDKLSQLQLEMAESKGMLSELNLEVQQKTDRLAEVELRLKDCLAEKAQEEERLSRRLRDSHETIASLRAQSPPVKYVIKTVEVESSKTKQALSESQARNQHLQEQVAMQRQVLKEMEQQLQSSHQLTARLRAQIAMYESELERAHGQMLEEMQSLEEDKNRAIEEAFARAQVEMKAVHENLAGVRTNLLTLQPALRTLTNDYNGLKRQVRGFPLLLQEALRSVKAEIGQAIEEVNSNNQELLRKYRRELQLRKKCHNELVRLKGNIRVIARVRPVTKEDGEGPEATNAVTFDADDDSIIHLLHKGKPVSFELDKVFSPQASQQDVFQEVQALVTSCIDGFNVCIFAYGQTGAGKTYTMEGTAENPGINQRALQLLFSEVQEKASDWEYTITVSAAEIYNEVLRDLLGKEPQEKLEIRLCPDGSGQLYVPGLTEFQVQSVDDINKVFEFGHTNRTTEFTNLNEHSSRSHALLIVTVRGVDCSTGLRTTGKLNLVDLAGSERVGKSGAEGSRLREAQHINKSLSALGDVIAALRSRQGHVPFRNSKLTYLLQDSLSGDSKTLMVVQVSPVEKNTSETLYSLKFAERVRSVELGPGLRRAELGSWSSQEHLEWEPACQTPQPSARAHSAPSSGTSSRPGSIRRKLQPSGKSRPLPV
B2: F-box only protein 11 (Homo sapiens), Q86XK2 (parent)
chain: MNSVRAANRRPRRVSRPRPVQQQQQQPPQQPPPQPPQQQPPQQQPPPPPQQQQQQQPPPPPPPPPPLPQERNNVGERDDDVPADMVAEESGPGAQNSPYQLRRKTLLPKRTACPTKNSMEGASTSTTENFGHRAKRARVSGKSQDLSAAPAEQYLQEKLPDEVVLKIFSYLLEQDLCRAACVCKRFSELANDPILWKRLYMEVFEYTRPMMHPEPGKFYQINPEEYEHPNPWKESFQQLYKGAHVKPGFAEHFYSNPARYKGRENMLYYDTIEDALGGVQEAHFDGLIFVHSGIYTDEWIYIESPITMIGAAPGKVADKVIIENTRDSTFVFMEGSEDAYVGYMTIRFNPDDKSAQHHNAHHCLEITVNCSPIIDHCIIRSTCTVGSAVCVSGQGACPTIKHCNISDCENVGLYITDHAQGIYEDNEISNNALAGIWVKNHGNPIIRRNHIHHGRDVGVFTFDHGMGYFESCNIHRNRIAGFEVKAYANPTVVRCEIHHGQTGGIYVHEKGRGQFIENKIYANNFAGVWITSNSDPTIRGNSIFNGNQGGVYIFGDGRGLIEGNDIYGNALAGIQIRTNSCPIVRHNKIHDGQHGGIYVHEKGQGVIEENEVYSNTLAGVWVTTGSTPVLRRNRIHSGKQVGVYFYDNGHGVLEDNDIYNHMYSGVQIRTGSNPKIRRNKIWGGQNGGILVYNSGLGCIEDNEIFDNAMAGVWIKTDSNPTLRRNKIHDGRDGGICIFNGGRGLLEENDIFRNAQAGVLISTNSHPILRKNRIFDGFAAGIEITNHATATLEGNQIFNNRFGGLFLASGVNVTMKDNKIMNNQDAIEKAVSRGQCLYKISSYTSYPMHDFYRCHTCNTTDRNAICVNCIKKCHQGHDVEFIRHDRFFCDCGAGTLSNPCTLAGEPTHDTDTLYDSAPPIESNTLQHN
B3: Abl interactor 2 (Homo sapiens), Q9NYB9 (parent)
chain: B1 chain
partner: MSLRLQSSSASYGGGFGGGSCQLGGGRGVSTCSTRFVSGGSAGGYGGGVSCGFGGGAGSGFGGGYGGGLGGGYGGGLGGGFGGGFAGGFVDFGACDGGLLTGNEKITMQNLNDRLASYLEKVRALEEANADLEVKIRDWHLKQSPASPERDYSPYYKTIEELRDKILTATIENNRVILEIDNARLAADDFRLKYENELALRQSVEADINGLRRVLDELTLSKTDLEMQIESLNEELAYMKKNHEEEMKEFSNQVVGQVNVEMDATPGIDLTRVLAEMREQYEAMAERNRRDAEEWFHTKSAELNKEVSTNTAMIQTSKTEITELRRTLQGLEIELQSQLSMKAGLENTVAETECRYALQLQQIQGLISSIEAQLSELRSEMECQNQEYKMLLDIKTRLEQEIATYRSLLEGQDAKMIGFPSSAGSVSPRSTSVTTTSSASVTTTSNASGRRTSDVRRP
B4: Abl interactor 2 (Homo sapiens), Q9NYB9 (parent)
chain: B1 chain
partner: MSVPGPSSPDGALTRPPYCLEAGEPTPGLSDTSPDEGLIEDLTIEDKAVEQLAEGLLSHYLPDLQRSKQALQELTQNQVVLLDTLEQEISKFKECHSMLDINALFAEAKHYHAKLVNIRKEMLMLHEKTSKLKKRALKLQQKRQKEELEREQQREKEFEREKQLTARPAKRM
B5: Angio-associated migratory cell protein (Homo sapiens), Q13685 (parent)
chain: MESESESGAAADTPPLETLSFHGDEEIIEVVELDPGPPDPDDLAQEMEDVDFEEEEEEEGNEEGWVLEPQEGVVGSMEGPDDSEVTFALHSASVFCVSLDPKTNTLAVTGGEDDKAFVWRLSDGELLFECAGHKDSVTCAGFSHDSTLVATGDMSGLLKVWQVDTKEEVWSFEAGDLEWMEWHPRAPVLLAGTADGNTWMWKVPNGDCKTFQGPNCPATCGRVLPDGKRAVVGYEDGTIRIWDLKQGSPIHVLKGTEGHQGPLTCVAANQDGSLILTGSVDCQAKLVSATTGKVVGVFRPETVASQPSLGEGEESESNSVESLGFCSVMPLAAVGYLDGTLAIYDLATQTLRHQCQHQSGIVQLLWEAGTAVVYTCSLDGIVRLWDARTGRLLTDYRGHTAEILDFALSKDASLVVTTSGDHKAKVFCVQRPDR
partner: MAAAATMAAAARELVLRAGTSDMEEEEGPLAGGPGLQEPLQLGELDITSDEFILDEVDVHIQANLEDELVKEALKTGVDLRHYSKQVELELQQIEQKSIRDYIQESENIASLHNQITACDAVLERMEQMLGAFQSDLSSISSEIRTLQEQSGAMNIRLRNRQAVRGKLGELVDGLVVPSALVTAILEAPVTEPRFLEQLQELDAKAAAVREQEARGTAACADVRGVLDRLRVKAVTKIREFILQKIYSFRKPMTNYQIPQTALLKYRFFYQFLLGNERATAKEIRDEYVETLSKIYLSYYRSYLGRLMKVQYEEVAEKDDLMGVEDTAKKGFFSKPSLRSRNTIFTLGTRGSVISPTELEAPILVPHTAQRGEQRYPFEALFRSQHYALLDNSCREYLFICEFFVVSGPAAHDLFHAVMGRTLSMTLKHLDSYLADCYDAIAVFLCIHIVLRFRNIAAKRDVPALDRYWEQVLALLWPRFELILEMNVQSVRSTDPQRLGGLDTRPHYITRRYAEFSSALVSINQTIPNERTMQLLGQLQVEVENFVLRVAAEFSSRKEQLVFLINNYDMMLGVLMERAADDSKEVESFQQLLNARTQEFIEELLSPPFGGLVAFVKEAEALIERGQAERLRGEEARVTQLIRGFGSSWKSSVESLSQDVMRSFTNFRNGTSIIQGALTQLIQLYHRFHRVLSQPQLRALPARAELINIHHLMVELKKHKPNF
B6: Angio-associated migratory cell protein (Homo sapiens), Q13685 (parent)
chain: B5 chain
B7: Abl interactor 2 (Homo sapiens), Q9NYB9 (parent)
chain: B1 chain
partner: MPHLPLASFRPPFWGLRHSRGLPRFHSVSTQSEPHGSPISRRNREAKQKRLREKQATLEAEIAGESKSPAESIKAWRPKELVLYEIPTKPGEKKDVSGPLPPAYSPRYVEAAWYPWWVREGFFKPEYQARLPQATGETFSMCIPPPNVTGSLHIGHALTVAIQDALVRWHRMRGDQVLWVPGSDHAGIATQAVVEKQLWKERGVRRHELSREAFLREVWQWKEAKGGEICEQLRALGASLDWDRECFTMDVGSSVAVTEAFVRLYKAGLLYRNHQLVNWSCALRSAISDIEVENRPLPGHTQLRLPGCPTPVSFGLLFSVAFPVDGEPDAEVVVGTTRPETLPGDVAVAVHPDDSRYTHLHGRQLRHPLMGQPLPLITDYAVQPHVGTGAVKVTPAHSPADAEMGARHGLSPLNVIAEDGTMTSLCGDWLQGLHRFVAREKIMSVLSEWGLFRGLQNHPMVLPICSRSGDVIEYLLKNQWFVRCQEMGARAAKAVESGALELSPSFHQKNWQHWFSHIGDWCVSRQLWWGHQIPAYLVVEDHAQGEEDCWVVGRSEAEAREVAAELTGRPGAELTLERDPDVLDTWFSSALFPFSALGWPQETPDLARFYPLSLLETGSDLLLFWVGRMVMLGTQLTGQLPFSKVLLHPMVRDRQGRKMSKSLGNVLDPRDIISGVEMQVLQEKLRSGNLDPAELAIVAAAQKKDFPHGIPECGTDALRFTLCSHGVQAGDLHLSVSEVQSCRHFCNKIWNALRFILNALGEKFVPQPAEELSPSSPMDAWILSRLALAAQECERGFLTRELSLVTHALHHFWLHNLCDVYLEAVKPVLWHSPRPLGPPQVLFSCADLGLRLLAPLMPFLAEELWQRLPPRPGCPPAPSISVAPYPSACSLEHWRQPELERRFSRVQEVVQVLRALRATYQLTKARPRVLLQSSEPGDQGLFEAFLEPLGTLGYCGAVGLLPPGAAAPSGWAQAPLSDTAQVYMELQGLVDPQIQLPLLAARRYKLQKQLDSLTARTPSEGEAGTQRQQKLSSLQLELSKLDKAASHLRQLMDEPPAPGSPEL

Variants of: B1
Conditions: with kifc3_human KIFC3, Q9BVG8

Variant | effect of a mutation on the interaction
R373C | disrupting interaction strength

Variants of: B2
Conditions: with skp1_human SKP1, P63208
skp1_human SKP1, P63208, sequence (P63208 whole entry): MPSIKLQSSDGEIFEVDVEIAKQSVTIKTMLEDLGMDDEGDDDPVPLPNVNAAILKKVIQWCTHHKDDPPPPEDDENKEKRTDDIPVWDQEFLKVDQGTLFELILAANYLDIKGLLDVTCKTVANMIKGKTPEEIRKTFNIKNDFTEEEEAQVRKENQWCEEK

Variant | effect of a mutation on the interaction
Y692F | with no effect

Variants of: B3
Conditions: with KRT13, P13646

Variant | effect of a mutation on the interaction
R373C | with no effect

Variants of: B3
Conditions: with KRT13, P13646
Remark: another data set of the same source

Variant | effect of a mutation on the interaction
E202K | with no effect

Variants of: B4
Conditions: with bl1s6_human BLOC1S6, Q9UL45

Variant | effect of a mutation on the interaction
E202K | with no effect

Variants of: B4
Conditions: with bl1s6_human BLOC1S6, Q9UL45
Remark: another data set of the same source

Variant | effect of a mutation on the interaction
R373C | with no effect

Variants of: B5
Conditions: with vps52_human VPS52, Q8N1B4

Variant | effect of a mutation on the interaction
MESESESGAAADTPPLETLSFHGDEEIIEVVELDPGPPDPDDLAQEMEDVDFEEEEEEEGNEEGWVLEPQEGVVGSMEGPDDSEVTFALHSASVFCVSLDPKTNTLAVTGGEDDKAFVWRLSDGELLFECAGHKDSVTCAGFSHDSTLVATGDMSGLLKVWQVDTKEEVWSFEAGDLEWMEWHPRAPVLLAGTADGNTWMWKVPNGDCKTFQGPNCPATCGRVLPDGKRAVVGYEDGTIRIWDLKQGSPIHVLKGTEGHQGPLTCVAANQDGSLILTGSVDCQAKLVSATTGKVVGVFRPETVASQPSLGEGEESESNSVESLGFCSVMPLAAVGYLDGTLAFYDLATQTLRHQCQHQSGIVQLLWEAGTAVVYTCSLDGIVRLWDARTGRLLTDYRGHTAEILDFALSKDASLVVTTSGDHKAKVFCVQRPDR [I343F] | with no effect

Variants of: B6
Conditions: with bhe40_human BHLHE40, O14503
bhe40_human BHLHE40, O14503, sequence (O14503 whole entry): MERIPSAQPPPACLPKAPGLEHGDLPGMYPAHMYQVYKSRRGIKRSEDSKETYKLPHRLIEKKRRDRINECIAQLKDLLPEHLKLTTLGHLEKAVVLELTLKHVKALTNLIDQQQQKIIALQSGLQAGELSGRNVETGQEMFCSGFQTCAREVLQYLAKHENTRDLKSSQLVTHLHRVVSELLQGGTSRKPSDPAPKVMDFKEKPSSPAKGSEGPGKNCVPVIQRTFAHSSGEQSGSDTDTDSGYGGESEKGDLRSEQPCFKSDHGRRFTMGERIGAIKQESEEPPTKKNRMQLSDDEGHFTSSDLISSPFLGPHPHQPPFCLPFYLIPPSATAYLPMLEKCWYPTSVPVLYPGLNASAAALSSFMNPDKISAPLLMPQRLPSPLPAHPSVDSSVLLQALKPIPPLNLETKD

Variant | effect of a mutation on the interaction
MESESESGAAADTPPLETLSFHGDEEIIEVVELDPGPPDPDDLAQEMEDVDFEEEEEEEGNEEGWVLEPQEGVVGSMEGPDDSEVTFALHSASVFCVSLDPKTNTLAVTGGEDDKAFVWRLSDGELLFECAGHKDSVTCAGFSHDSTLVATGDMSGLLKVWQVDTKEEVWSFEAGDLEWMEWHPRAPVLLAGTADGNTWMWKVPNGDCKTFQGPNCPATCGRVLPDGKRAVVGYEDGTIRIWDLKQGSPIHVLKGTEGHQGPLTCVAANQDGSLILTGSVDCQAKLVSATTGKVVGVFRPETVASQPSLGEGEESESNSVESLGFCSVMPLAAVGYLDGTLAFYDLATQTLRHQCQHQSGIVQLLWEAGTAVVYTCSLDGIVRLWDARTGRLLTDYRGHTAEILDFALSKDASLVVTTSGDHKAKVFCVQRPDR [I343F] | with no effect

Variants of: B7
Conditions: with syvm_human VARS2, Q5ST30

Variant | effect of a mutation on the interaction
E202K | with no effect

— IntAct's records for PubMed 29892012
